Assay results: paper PMC3466216, “The CRISPR Associated Protein Cas4 Is a 5′ to 3′ DNA Exonuclease with an Iron-Sulfur Cluster” (PLoS ONE, 2012)

Biological target: the molecule itself
Experiment: SEC; calibrated Superose-12 column, buffer E (20 mM Tris-HCl pH 7.5, 250 mM NaCl, 10% glycerol), flow rate 0.8 ml/min; self-association, size of the oligomer not determined

B1: Sso0001 (Cas4 family protein from Sulfolobus solfataricus) (enzyme, Sulfolobus solfataricus P2, UniProt Q97TX9 1-202, looked up)
chain: MITEFLLKKKLEEHLSHVKEENTIYVTDLVRCPRRVRYESEYKELAISQVYAPSAILGDILHLGLESVLKGNFNAETEVETLREINVGGKVYKIKGRADAIIRNDNGKSIVIEIKTSRSDKGLPLIHHKMQLQIYLWLFSAEKGILVYITPDRIAEYEINEPLDEATIVRLAEDTIMLQNSPRFNWECKYCIFSVICPAKLT
notes: Sso0001, Cas4 family protein of Sulfolobus solfataricus P2; the sso0001 gene was amplified from the genome with primers that begin at the start codon and end after the stop codon; a single subunit is printed as 23 kDa; Carries an iron-sulfur cluster (mean 4.3 iron atoms per protein, consistent with 4Fe:4S); No removal of the tag is described; The size of the oligomer was not determined; also …
- binding result: binds
